Measured values published in paper PMC4685450, “Crystal Structure of Human SSRP1 Middle Domain Reveals a Role in DNA Binding”.

B1: AT-rich dsDNA (dsDNA)
DNA 1: ATAATTTATATTTATTATTTTATTATAATT
DNA 2: AATTATAATAAAATAATAAATATAAATTAT
B2: GC-rich dsDNA (dsDNA)
DNA 1: GCGGCCCGCGCCCGCCGCCCCGCCGCGGCC
DNA 2: GGCCGCGGCGGGGCGGCGGGCGCGGGCCGC
B3: 30-bp linker dsDNA (dsDNA)
DNA 1: TCCAGTGCCGGTGTCGCTTGGGTCCCGAGG
DNA 2: CCTCGGGACCCAAGCGACACCGGCACTGGA

Experiments:
Details in all cases: protein: recombinant; tags: N-terminal 6xHis; blunt
SSRP1-M [1] = target: T1, SSRP1-M (Homo sapiens, UniProt Q08945 196-430); test: EMSA; no obvious difference from linker DNA; EMSA buffer, salt, pH and temperature not given in the material; proteins purified in 20 mM Tris-HCl, 200 mM NaCl, pH 7.0
SSRP1-N = SSRP1-N (Homo sapiens, UniProt Q08945 1-176); test: EMSA (agarose); EMSA buffer, salt, pH and temperature not given in the material; proteins purified in 20 mM Tris-HCl, 200 mM NaCl, pH 7.0
SSRP1-C = SSRP1-C (Homo sapiens, UniProt Q08945 513-709); test: as above
SSRP1-M [2] = target: T1, SSRP1-M; test: EMSA (agarose and native PAGE); oligomerized complex in wells; EMSA buffer, salt, pH and temperature not given in the material; proteins purified in 20 mM Tris-HCl, 200 mM NaCl, pH 7.0

T1 sequence (Q08945 196-430): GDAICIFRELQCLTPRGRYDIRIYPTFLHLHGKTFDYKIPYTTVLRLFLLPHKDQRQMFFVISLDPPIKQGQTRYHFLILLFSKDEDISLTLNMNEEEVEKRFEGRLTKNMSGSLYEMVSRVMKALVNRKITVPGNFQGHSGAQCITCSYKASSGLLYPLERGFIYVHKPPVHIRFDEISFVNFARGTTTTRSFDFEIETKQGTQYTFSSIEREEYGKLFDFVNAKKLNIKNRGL
SSRP1-N, sequence (Q08945 1-176): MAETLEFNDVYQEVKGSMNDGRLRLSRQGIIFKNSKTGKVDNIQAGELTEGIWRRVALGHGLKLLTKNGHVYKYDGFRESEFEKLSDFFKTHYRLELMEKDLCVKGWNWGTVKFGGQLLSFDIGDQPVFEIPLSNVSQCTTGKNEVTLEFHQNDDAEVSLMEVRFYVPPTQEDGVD
SSRP1-C, sequence (Q08945 513-709): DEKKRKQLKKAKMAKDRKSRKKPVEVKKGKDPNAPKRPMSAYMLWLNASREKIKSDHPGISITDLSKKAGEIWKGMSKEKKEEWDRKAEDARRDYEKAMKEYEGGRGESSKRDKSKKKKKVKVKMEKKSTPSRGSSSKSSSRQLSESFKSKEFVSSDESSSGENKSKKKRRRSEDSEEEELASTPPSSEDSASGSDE

Binder | binding result (SSRP1-M [1]) | binding result (SSRP1-N) | binding result (SSRP1-C) | binding result (SSRP1-M [2])
B1 | binds | – | – | –
B2 | binds | – | – | –
B3 | – | no binding | binds | binds
